The values that follow come from patent EP4810607A2.

For test [1], the target named is mouse IL-11 (endogenous, produced by mouse fibroblasts in culture) (mouse) (UniProt P47873). The test is described as follows: cell-based or functional assay.
The target in test [2] is human IL-11 (native, secreted by human fibroblasts in culture) (human) (UniProt P20809). As to the kind of experiment: cell-based or functional assay.
Sequence of UniProt P20809 (P20809 22-199): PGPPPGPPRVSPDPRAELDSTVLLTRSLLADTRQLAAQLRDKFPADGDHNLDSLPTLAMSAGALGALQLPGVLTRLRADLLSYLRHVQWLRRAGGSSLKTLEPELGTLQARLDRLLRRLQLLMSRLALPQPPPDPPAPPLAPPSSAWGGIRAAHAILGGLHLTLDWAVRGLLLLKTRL

Sequence of UniProt P47873 (P47873 22-199 limits assumed): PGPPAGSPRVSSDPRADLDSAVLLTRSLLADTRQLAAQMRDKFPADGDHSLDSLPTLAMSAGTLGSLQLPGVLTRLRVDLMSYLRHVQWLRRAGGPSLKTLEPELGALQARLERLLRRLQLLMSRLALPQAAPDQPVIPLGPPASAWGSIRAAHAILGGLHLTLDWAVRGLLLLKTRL

In test [1], “neutralising anti-human IL-11 monoclonal antibody (Monoclonal Mouse IgG2A; Clone #22626; Catalog No. MAB218; R&D Systems, MN, USA)” came in with a percentage of activated fibroblasts normalised to non-stimulated cultures, TGFβ1-stimulated mouse dermal fibroblasts (fold of non-stimulated) of 1.24; a percentage of activated fibroblasts relative to unstimulated cultures, TGFβ1-stimulated mouse atrial fibroblasts of 1.44 fold; a percentage of activated fibroblasts, TGFβ1-stimulated mouse dermal fibroblasts of 39.4%. Further, in test [2], the percentage of activated fibroblasts normalised to non-stimulated cultures, TGFβ1-stimulated human atrial fibroblasts (fold of non-stimulated) was determined as 0.99; the percentage of activated fibroblasts relative to unstimulated cultures, TGFβ1-stimulated human atrial fibroblasts came out at 0.89 fold; the percentage of activated fibroblasts, TGFβ1-stimulated human atrial fibroblasts was found to be 28.3%.
